Test results published in patent US20090048161A1 (VALORISATION HSJ SOCIETE EN COMMANDITE, published 2009).
One block for each binder: values may come before it. Where no end group is shown, it is not given here. [ ]: non-standard residue; d: D form. dOrn = NCCC[C@@H](N)C(=O)O

Experiments:
Assay in all cases: cell-based or functional assay
[1] = molecular target: T1, IL-1R of pig (piglet pial vessels; porcine endothelial cells) (porcine (piglet), UniProt A0A5G2QSI4 18-572)
T1 sequence: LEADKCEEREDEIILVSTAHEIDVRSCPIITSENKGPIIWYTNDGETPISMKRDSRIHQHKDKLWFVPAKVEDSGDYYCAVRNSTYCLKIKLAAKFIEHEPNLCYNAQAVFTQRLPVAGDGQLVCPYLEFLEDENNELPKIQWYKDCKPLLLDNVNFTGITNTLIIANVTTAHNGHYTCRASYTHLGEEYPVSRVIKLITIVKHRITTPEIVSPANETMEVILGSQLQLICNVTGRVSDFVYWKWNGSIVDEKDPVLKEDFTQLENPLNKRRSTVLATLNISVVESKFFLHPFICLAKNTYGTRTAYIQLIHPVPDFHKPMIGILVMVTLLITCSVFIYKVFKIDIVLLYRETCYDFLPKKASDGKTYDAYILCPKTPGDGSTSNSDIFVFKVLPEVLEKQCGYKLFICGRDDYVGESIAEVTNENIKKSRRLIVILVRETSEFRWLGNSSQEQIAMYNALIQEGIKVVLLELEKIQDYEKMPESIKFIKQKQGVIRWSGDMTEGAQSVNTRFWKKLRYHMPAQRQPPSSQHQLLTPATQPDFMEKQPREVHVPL

[2] = molecular target: T2, human Interleukin-1 receptor (IL-1R-alpha) (human, UniProt P14778 18-569)
T2 sequence: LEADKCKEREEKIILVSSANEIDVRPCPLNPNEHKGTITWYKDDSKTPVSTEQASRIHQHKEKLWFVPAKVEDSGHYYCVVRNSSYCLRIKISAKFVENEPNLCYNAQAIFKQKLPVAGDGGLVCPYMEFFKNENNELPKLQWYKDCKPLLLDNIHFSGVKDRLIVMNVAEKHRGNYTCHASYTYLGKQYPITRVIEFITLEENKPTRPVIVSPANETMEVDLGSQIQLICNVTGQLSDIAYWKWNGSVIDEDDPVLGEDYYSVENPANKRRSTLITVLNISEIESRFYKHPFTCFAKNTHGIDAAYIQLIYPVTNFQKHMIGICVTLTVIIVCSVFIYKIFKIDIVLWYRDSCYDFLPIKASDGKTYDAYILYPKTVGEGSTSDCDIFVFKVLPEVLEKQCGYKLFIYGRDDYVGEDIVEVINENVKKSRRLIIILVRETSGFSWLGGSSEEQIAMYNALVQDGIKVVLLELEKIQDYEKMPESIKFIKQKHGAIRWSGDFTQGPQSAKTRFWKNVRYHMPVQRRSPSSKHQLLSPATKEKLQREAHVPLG

[3] = molecular target: IL-1R (cells or tissue whose species or assay the filing does not state at that place)
[4] = molecular target: T3, human Insulin-like growth factor 1 receptor (IGF-1R) (human, UniProt P08069 31-1367)
T3 sequence (P08069 31-1367 limits assumed): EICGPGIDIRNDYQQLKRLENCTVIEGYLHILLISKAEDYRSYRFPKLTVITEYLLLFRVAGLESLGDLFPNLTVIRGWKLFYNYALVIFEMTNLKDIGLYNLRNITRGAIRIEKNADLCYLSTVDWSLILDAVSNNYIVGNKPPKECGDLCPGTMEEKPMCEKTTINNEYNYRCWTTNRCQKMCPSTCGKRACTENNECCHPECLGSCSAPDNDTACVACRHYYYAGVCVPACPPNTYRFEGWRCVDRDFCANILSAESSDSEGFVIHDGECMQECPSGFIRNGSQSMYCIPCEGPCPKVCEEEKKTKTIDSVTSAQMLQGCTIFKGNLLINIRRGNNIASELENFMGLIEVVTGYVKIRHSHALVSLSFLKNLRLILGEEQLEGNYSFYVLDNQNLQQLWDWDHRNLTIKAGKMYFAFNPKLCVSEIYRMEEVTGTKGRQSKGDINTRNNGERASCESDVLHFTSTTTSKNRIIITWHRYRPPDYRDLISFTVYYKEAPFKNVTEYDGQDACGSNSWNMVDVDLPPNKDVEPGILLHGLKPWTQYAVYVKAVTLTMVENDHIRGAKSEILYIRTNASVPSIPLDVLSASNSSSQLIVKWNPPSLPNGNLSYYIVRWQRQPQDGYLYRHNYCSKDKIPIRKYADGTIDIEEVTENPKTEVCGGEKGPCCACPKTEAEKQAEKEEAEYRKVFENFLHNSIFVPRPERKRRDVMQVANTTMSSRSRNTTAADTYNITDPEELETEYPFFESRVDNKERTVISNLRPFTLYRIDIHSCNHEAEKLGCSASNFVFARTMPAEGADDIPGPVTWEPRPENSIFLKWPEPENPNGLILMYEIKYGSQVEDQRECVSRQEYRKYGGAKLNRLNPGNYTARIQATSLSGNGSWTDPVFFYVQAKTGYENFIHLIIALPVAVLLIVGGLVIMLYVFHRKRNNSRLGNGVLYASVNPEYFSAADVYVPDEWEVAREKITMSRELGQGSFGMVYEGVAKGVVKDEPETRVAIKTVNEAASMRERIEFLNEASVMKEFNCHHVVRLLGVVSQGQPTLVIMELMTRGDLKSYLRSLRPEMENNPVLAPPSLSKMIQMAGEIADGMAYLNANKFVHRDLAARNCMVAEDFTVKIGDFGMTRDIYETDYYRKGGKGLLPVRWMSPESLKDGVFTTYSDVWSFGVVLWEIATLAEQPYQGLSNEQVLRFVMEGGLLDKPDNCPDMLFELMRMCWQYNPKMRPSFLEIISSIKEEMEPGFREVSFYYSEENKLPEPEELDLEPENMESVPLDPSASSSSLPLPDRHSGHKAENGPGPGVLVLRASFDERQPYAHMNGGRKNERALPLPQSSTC

[5] = molecular target: IGF-1 receptor of rat aorta (rat, UniProt P24062 31-1370)
Sequence of IGF-1 receptor of rat aorta (P24062 31-1370): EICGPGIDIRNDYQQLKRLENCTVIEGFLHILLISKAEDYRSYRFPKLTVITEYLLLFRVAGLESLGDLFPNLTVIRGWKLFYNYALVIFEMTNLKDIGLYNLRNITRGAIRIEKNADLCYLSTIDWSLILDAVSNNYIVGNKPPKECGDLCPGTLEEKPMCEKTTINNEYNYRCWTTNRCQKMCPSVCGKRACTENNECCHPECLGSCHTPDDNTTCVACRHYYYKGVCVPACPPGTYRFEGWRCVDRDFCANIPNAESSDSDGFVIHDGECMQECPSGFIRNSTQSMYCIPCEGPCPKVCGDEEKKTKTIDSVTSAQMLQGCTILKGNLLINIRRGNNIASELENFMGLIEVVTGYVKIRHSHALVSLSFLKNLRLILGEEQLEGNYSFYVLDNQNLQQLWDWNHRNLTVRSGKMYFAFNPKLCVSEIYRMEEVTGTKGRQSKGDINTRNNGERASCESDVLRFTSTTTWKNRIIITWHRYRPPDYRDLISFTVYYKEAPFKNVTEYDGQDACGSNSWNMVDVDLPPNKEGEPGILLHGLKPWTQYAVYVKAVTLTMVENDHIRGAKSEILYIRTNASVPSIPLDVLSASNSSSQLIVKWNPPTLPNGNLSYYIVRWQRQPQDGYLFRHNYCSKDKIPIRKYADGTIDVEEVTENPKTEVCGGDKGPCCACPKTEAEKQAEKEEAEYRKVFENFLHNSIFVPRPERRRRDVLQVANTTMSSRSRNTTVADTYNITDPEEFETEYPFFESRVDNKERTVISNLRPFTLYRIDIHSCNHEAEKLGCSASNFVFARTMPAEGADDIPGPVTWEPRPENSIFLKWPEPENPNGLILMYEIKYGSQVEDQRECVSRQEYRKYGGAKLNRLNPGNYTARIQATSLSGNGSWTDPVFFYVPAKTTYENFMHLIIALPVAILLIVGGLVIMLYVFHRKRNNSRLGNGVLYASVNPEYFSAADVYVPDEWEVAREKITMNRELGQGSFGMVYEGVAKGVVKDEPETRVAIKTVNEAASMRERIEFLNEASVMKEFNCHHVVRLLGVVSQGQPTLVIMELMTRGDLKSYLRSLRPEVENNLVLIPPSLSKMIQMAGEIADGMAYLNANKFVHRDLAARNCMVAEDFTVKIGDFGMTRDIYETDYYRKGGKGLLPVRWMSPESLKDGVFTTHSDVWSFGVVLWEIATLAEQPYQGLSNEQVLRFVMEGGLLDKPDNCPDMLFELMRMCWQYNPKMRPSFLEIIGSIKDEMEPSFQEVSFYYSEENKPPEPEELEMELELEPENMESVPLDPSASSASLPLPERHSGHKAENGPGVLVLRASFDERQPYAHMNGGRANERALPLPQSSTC

[6] = molecular target: T2, human Interleukin-1 receptor …; remark: listed apart in the source
[7] = molecular target: T3, human Insulin-like growth factor 1 …; remark: listed apart in the source
[8] = molecular target: T3, human Insulin-like growth factor 1 …; remark: listed apart in the source
[9] = molecular target: T2, human Interleukin-1 receptor …; remark: listed apart in the source
[10] = molecular target: T1, IL-1R of pig (piglet pial vessels; …); remark: listed apart in the source
[11] = molecular target: T3, human Insulin-like growth factor 1 …; remark: listed apart in the source
VEGFR-2 (Flk-1) = VEGFR-2 (Flk-1) (human, UniProt P35968 20-1356)
Sequence of VEGFR-2 (Flk-1) (P35968 20-1356 limits assumed): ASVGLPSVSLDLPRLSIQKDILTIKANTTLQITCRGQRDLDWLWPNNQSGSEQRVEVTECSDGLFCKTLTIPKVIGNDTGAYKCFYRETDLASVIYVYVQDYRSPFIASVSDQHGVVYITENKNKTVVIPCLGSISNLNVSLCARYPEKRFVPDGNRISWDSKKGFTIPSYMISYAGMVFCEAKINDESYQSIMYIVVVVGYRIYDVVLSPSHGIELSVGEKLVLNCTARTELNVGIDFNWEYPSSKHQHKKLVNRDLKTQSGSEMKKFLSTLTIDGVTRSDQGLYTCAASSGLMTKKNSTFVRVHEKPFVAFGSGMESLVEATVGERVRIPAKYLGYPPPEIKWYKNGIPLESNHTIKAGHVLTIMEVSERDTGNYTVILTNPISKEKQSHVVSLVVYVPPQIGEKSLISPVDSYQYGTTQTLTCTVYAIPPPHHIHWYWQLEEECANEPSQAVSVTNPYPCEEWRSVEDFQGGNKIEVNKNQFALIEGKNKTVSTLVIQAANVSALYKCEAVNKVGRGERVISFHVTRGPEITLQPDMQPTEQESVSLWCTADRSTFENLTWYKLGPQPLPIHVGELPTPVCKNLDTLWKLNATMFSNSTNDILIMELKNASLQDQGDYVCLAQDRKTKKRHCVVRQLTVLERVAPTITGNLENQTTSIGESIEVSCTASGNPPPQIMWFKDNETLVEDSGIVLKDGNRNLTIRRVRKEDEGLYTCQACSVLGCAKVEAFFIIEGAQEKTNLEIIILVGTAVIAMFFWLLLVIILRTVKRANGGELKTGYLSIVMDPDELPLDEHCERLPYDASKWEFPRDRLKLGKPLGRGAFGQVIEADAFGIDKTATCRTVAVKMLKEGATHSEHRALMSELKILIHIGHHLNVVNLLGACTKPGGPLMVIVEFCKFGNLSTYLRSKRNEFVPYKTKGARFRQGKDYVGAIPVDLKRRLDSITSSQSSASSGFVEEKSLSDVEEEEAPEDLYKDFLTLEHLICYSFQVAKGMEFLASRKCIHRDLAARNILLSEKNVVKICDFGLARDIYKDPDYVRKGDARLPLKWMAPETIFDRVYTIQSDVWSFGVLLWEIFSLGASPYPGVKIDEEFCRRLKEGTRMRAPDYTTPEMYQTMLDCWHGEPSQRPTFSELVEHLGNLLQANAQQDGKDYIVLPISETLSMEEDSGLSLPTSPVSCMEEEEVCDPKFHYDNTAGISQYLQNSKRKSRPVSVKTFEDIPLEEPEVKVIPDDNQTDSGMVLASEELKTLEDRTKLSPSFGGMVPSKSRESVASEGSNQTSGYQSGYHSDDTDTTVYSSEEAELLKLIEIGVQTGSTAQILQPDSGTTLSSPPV

Binder: [dR][dY][dT][dP][dD][dL][dA] [API-101.117]
- Emax (%), IL-1β-induced PGE2 synthesis in endothelial cells (porcine) [1]: 100%
- IC50, IL-1β-induced PGE2 synthesis in endothelial cells (porcine) [1]: 10 pM

Binder: MKLPVHKLY [API-103]
- EC50, IL-1 induced proliferation, 3H-thymidine, A549 carcinoma cells [2]: 1000 nM

Binder: ENFLHLLLA [APG-205]
- EC50, IGF-1 (50 ng/ml)-induced proliferation, MCF-7 [4]: 0.1 nM
- EC50, IGF-1 (50 ng/ml)-induced proliferation, MDA-MB-231 [4]: 0.1 µM
- Emax, IGF-1 (50 ng/ml)-induced proliferation, MCF-7 [4]: 60%
- Emax, IGF-1 (50 ng/ml)-induced proliferation, MDA-MB-231 [4]: 100%
- EC50, inhibition of ex vivo IGF-1-induced vasorelaxation of rat aorta [5]: 70 nM
- Emax, inhibition of ex vivo IGF-1-induced vasorelaxation of rat aorta [5]: 25%

Binder: [dOrn][dY][dT][dP][dE][dL] [API-101.126]
- Emax (%), IL-1β-induced TF-1 proliferation [6]: 0%

Binder: ERTVLSNL [APG-206.7]
- Emax, IGF-1-induced proliferation, NIH3T3-IGF-1R cells [7]: 100%
- IC50, IGF-1-induced proliferation, NIH3T3-IGF-1R cells [7]: 20 nM
- Emax, proliferation, MCF-7 (breast cancer) cells [8]: 90%
- IC50, proliferation, MCF-7 (breast cancer) cells [8]: 0.01 nM

Binder: KERTVISNLR [APG-206]
- EC50, IGF-1 (50 ng/ml)-induced proliferation, HepG2 [4]: < 0.1 nM
- EC50, IGF-1 (50 ng/ml)-induced proliferation, MCF-7 [4]: 2 nM
- Emax, IGF-1 (50 ng/ml)-induced proliferation, MCF-7 [4]: 60%
- EC50, inhibition of ex vivo IGF-1-induced vasorelaxation of rat aorta [5]: 689 nM
- Emax, inhibition of ex vivo IGF-1-induced vasorelaxation of rat aorta [5]: 75%

Binder: [dR][dW][dT][dP][dE][dL][dA] [API-101.116]
- Emax (%), IL-1β-induced proliferation in TF-1 cells (human) [9]: 75%
- IC50, IL-1β-induced proliferation in TF-1 cells (human) [9]: 0.5 nM
- Emax (%), IL-1β-induced PGE2 synthesis in endothelial cells (porcine) [1]: 45%
- IC50, IL-1β-induced PGE2 synthesis in endothelial cells (porcine) [1]: 13 pM

Binder: [dA][dQ][dE][dK][dT][dN][dL][dE][dI][dI][dI][dL][dV]G (not fully specified (residue 14)) [VEGFR peptide 2.1]
- EC50, VEGF (2 ng/ml)-induced proliferation, 3H-thymidine, PAEC transfected with Flk-1 (VEGFR-2 (Flk-1)): 9 µM

Binder: KERTVLS [APG-206.5]
- Emax, IGF-1-induced proliferation, NIH3T3-IGF-1R cells [7]: 75%
- IC50, IGF-1-induced proliferation, NIH3T3-IGF-1R cells [7]: 0.5 nM
- Emax, proliferation, MCF-7 (breast cancer) cells [8]: 100%
- IC50, proliferation, MCF-7 (breast cancer) cells [8]: 9 nM

The remaining lines, values ahead:

- IC50, PGE2 measurement, human WI-38 cells [2]: 0.1 µM
- IC50 (assay not given) [3]: 1.2 pM
Binder: [dR][dY][dT][dP][dE][dL][dA] [API-101.107]

- Emax (%), IL-1β-induced proliferation in TF-1 cells (human) [9]: 100%
- Emax (%), IL-1β-induced PGE2 synthesis in endothelial cells (porcine) [1]: 80%
- IC50, IL-1β-induced PGE2 synthesis in endothelial cells (porcine) [1]: 7.4 pM
- Emax (%), IL-1β-induced TF-1 proliferation [6]: 70%
Binder: [dR][dY][dT][dP][dE][dL] [API-101.113]

- IC50, IL-1-induced PGE2 synthesis, WI-38 cells [2]: 0.2 nM
- percent of IL-1β-induced WI-38 (human lung fibroblasts) proliferation abolished, 3H-thymidine [2]: 100%
- IC50, IL-1-induced PGE2 synthesis, endothelial cells [10]: 1.2 nM
- IC50, prevention of IL-1β (75 ng/ml)-induced vasodilation, piglet pial vessels [10]: 10.8 nM
Binder: [dR][dY][dT][dV][dE][dL][dA] (also: 125I-labelled form used as tracer, site not given here) [API-101.10]

- EC50, IL-1 induced proliferation, 3H-thymidine, A549 carcinoma cells [2]: 1000 nM
- IC50, IL-1-induced PGE2 synthesis, WI-38 cells [2]: 790 nM
- percent of IL-1β-induced WI-38 (human lung fibroblasts) proliferation abolished, 3H-thymidine [2]: 65%
- IC50, IL-1-induced PGE2 synthesis, endothelial cells [10]: 220 nM
- IC50, prevention of IL-1β (75 ng/ml)-induced vasodilation, piglet pial vessels [10]: 182 nM
Binder: [dA][dP][dR][dY][dT][dV][dE][dL][dA] [API-101]

- EC50, IGF-1 induced proliferation, 3H-thymidine, A549 carcinoma cells [11]: 10 nM
- EC50, IGF-1 (50 ng/ml)-induced proliferation, MCF-7 [4]: 300 nM
- Emax, IGF-1 (50 ng/ml)-induced proliferation, MCF-7 [4]: 20%
Binder: [dE][dS][dD][dV][dL][dH][dF][dT][dS][dT] [APG-202]

- Emax, IGF-1-induced proliferation, NIH3T3-IGF-1R cells [7]: 90%
- IC50, IGF-1-induced proliferation, NIH3T3-IGF-1R cells [7]: 20 nM
Binder: TVLSNL [APG-206.9]
